Laboratory results published in the nanobody polyreactivity screen of Harvey et al. (2022).

Assay: yeast display, Sf9 membrane polyspecificity reagent, FACS + sequencing; frameworks hold sequencing errors
Method in brief: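 A nanobody's polyreactivity label depends on the gate it was sorted from. Yeast display cells were stained with 10% biotinylated, detergent-solubilized Sf9 membrane reagent for 1 hour at 4 °C, enriched on streptavidin microbeads and sorted by FACS. The low and high (top ~1%) gates were set on anti-HA fluorescence for expression and streptavidin fluorescence for reagent binding.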

Sequence	polyreactivity (PSR sort gate)
QVQLVESGGGLVQAGGSLRLSCAASGSILGWYAMGWYRQAPGKERQLVAAISYSGTSTYYADSVKGRFTISRDNAKNPVYLQMNSLNPEDTAVYYCNAFFSSRYYRVGSGYDYWGQGTQVTVSS	high polyreactivity
QVQLVESGGGLVQAGGSLRLSCAASGSILGYYAMGWYRPAPGKERELVAAISGRGGSTYYADSVKGRFTISRDNAKNTVYLQMNSLKPEDTAVYYCAVVWGSYYWGQGGGDYWGQGTQVTVSS	high polyreactivity
QVQLVESGGGLVQAGGSLRLSCAASGSILLNNAMGWYRQAPGKERELVAAISLSGGGSTYYADSVKGRFTISRDNAKNTVYLQMNSLKPEDTAVYYCNADDPYLYYDSYDYWGQGTQVTVSS	low polyreactivity
QVQLVESGGGLVQAGGSLRLSCAASGSILLYYTMGWYIQAPGKEWELVAAISWSGGSTYYADSVKGRFTISRDNAKNTVYLLMISLKPEDTAVYYCATRSVQGSYFAGYGYWGQGTQVTVSS	low polyreactivity
QVQLVESGGGLVQAGGSLRLSCAASGSILNAYAMGWYRQAPGKERELVAAITGSDGSTYYADSVKGRFTISRDNAKNTVYLQMNSLKPEDTAVYYCNADYSQPVYWWLDDYWGHGTQVTVSS	low polyreactivity
QVQLVESGGGLVQAGGSLRLSCAASGSILNFYAMGWYRQAPGKERELVAAISSGGSTNYADSVKGRFTISRDNAKNTVYLQMNSLKPEDTAVYYCAATGGDRYEAYYYWGQGTQVTVSS	low polyreactivity
QVQLVESGGGLVQAGGSLRLSCAASGSILNPNAMGWSRQAPGKERELVASISKSGGSTYYADSVKGRFTISRDNAKNTVYLQMNSLKPEDTAVYYCAAAFVSVRERYGYWGQGTQVTVSS	high polyreactivity
QVQLVESGGGLVQAGGSLRLSCAASGSILPLYAMGWYRQAPGKERELVATISNAGSTTYADSVKGRFTISRDNAKNTVYLQMHSLKPEVTAVYYCNAESEWGWVYVGYDYWGQGTQVTVSS	low polyreactivity
QVQLVESGGGLVQAGGSLRLSCAASGSILPRYGMGWYSQAPGKEREFVAAISWRGGRTYYADSVKGRFTISRDTAKHTVYVQMNSLKPEDTAVYYCAARAHIYTRLDYWGQGTEVTVSS	high polyreactivity
QVQLVESGGGLVQAGGSLRLSCAASGSILQSYAMGWYRQAPGKERELVAAISGSGGSTYYADSVKGRFTISRDNAKNTVYLQMNSLKPEDTAVYYCAKGPLYRTSRGEFGYWGQGTQVTVAS	low polyreactivity
QVQLVESGGGLVQAGGSLRLSCAASGSILQVYAMGWYRQAPGKERELFADINYTTGSTYYADSVKGRFTISRDNAKNTVYLQMNSLKPEDTAVYYCAKDFGFQSDSWGQGTQVTVSS	low polyreactivity
QVQLVESGGGLVQAGGSLRLSCAASGSILRKYAMGWYRQAPGKERELVAAISGSGGRTHYADSVKGRFTISRDNAKNTVYLQMNSLKPEDTAVYYCARRIKLGQRQGGYYWGQGTQVTVSS	high polyreactivity
QVQLVESGGGLVQAGGSLRLSCAASGSILRRNAMGWYRPAPGKERELFAGISRGGNTNYADSVNGRFTISRDNAKNTVYLQMNSLKPEDTAVYYCDTDGYGRWGRLTFTYWGQGTQVTVSS	low polyreactivity
QVQLVESGGGLVQAGGSLRLSCAASGSILRSYAMGWYRQAPGKERELVAVINGSGGRTYYADSVKGRFTISRDNAKNTVYLQMNSLKPEDTAVYYCAARRHTKRPGYDYWGQGTQVTVSS	low polyreactivity
QVQLVESGGGLVQAGGSLRLSCAASGSILRTYTMGWYRQAPGKERELVAAISSSGGRTYYADSVKGRFTISRDNAKNTVYLQMNSLKPEDTAVYYCNAAYTTWRRGPMNYWGQGTQVTVSS	high polyreactivity
QVQLVESGGGLVQAGGSLRLSCAASGSILRYYTMGWYRQAPGKERELVASIRATGGNTYYADSVKGRFTISRDNAKNTVYLQMNSLKPEDTAVYYCAARYRKKYYWGQGTQVTVSS	high polyreactivity
QVQLVESGGGLVQAGGSLRLSCAASGSILSAYSMGWYRQAPGKARELVAAISKSGSSTYYSDSVKGRFTISRDNAKNTVYLQMNSLKPEDTAVYYCAAESSSYYGYYIYYYWGQGTQVTVSS	high polyreactivity
QVQLVESGGGLVQAGGSLRLSCAASGSILSENAMGWYRQAPGKERELVATISGSGSSTYYADSVKGRFTISRDNAKNTVYLQMNSLKPEDTAVYYCAAKYYLYWWPYDYWGQGTQVTVSS	low polyreactivity
QVQLVESGGGLVQAGGSLRLSCAASGSILSHNAMGWYRQAPGKERELVAAITTSGSTTYADSVKGRFTISRDNAKNTVYLQMNSLKPEDTAVYYCNARPDSWSDTAQNRYDYWGQGTQVTVSS	low polyreactivity
QVQLVESGGGLVQAGGSLRLSCAASGSILTRNAMGWYRQAPAKEREFVARITYSGGRTYYADSVKGRFTISRDNAKNTVYLQMNSLKPEDTAVYYCAKTDRYSLGYWGQGTQVTVSS	low polyreactivity
QVQLVESGGGLVQAGGSLRLSCAASGSILTVYSMGWYRQAPGKERELVARIRSGDRTYYADSVKGRFTISRDNAKNTVYLQMNSLKPEDTAVYYCAAGSQRRYYHTNWDSFNYWGQGTQVTVSS	low polyreactivity
QVQLVESGGGLVQAGGSLRLSCAASGSILVNNAMGWYRQAPGKERELVAAISRSGTRTFYADSVKGRFTISRENAKNTVYLQMNSLKPEDTAVYYCAVDYYYRMDYWGQGTQVTVSS	high polyreactivity
QVQLVESGGGLVQAGGSLRLSCAASGSILWLYVMGWYRQAPGKERELVATITSSGGSTYYADSVKGRFTISRDNAKNTVYLQKNSLKPEDTAVYYSAAQTYNSYDYWGQATQVTVSS	low polyreactivity
QVQLVESGGGLVQAGGSLRLSCAASGSILWQYAIGRYRQAPGKEMELVAAINQRGGSTYYADSVKGRFTISRDYAKNTVYLQMNSLKPEDTAVYYCNTYPTRTYPSYYYWGQGTQVTVSS	high polyreactivity
QVQLVESGGGLVQAGGSLRLSCAASGSILWQYAMGWSRQAPGKERELVAAITYSGASTHYADSVKGRFTISRDNAKNTVYLQMNRLKPEDTAVYYCAAGYWYRYAALRYDHWGQGTQVTVSS	low polyreactivity
QVQLVESGGGLVQAGGSLRLSCAASGSILWVNAMGWYRQAPGKERELVAAITSGGDSTNYADSVKGRFTISRDNAKNTVYLQMNSLKPEDTAVYYCNAEFWLNEDLDYDTSYDYWGQGTQVTVSS	low polyreactivity
QVQLVESGGGLVQAGGSLRLSCAASGSILYANAMGWYRQAPGKDRELVAAISARGTSTYYADSVKGRFTISRDNAKNTVYLQMNSLKPEDTAVYYCAAYVRKKLPSALMNYWGQGTQVTVSS	high polyreactivity
QVQLVESGGGLVQAGGSLRLSCAASGSILYLNAMGWYRQAPGKERELVAAITWSGGSTSYADSVKGRFTISRDNAKNTVYLQMISLKPEDTAVYYCAAVRRGYGGVYYAGGYWGQGTQVTVSS	low polyreactivity
QVQLVESGGGLVQAGGSLRLSCAASGSILYPNAMGLYRQAPGKERELVAAISSSGGSTYYADSVKGRFTISRDNAKNTVYLQMNSLKPEDTAVYYCAADHYIPIYSKYDYWGQVTQVTVSS	high polyreactivity
QVQLVESGGGLVQAGGSLRLSCAASGSILYRNAMGWYRQAPGKEREFVAAISWRGGSTYYADSVKGRFTISRDNAKNTVYLQMNSLKPEDTAVYYCAKGGYRSPPGRYDGYYWGQGTQVTVSS	high polyreactivity
